Reference: the supplement of paper PMC11136658

Tested on: peptide library, one residue held at a place counted from the Y acceptor
Experiment: relative phosphorylation of the sub-library (ratio to the mean residue at this position); higher = residue favoured
Procedure, shortened: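 Biotinylated Tyr-centred peptide library mixtures, each fixing one residue at one position from −5 to +5, were incubated with purified recombinant kinases in 384-well plates for 90 min with 50 μM ATP plus γ-32P-ATP. Streptavidin membranes captured the peptides, which were rinsed and quantified by phosphorimaging and ImageQuant. At each position, intensities were divided by the sum of the 18 randomized residues (16 for the Ser/Thr-free library) and multiplied by that number. Each value is phosphorylation relative to the mean randomized residue.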

Sequence of PKMYT1, construct: Full length, human (Q99640 whole entry, looked up): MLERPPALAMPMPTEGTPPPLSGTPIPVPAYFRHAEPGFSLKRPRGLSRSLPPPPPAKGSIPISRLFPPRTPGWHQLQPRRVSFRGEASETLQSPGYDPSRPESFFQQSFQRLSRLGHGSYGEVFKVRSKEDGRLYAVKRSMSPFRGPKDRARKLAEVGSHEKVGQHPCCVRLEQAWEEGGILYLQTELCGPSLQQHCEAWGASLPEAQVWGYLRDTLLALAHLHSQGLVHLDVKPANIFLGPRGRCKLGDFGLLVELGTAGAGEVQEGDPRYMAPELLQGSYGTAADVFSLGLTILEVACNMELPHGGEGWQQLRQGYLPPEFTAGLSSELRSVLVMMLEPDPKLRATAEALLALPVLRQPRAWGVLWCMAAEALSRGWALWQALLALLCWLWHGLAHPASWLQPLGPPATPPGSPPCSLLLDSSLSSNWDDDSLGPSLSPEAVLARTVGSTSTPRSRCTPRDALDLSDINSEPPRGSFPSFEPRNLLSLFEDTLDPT

PKMYT1, construct: Full length, human (from UniProt Q99640)
relative phosphorylation
Details | at +1 | at +2 | at +3 | at +4 | at +5 | at -1 | at -2 | at -3 | at -4 | at -5
A fixed | 0.864 | 0.982 | 0.813 | 1.11 | 0.947 | 1.04 | 1.05 | 1.2 | 1.2 | 1.16
D fixed | 0.69 | 0.754 | 0.728 | 0.889 | 0.933 | 0.756 | 0.814 | 0.784 | 0.792 | 0.741
E fixed | 0.834 | 0.775 | 0.66 | 0.833 | 0.979 | 0.845 | 0.915 | 0.837 | 0.84 | 0.772
F fixed | 0.794 | 1.12 | 1.55 | 1.01 | 1.03 | 0.72 | 1.01 | 1.09 | 1.06 | 1.18
G fixed | 1.64 | 1.08 | 1.01 | 1.18 | 1.03 | 2.03 | 1.4 | 1.14 | 1.27 | 0.902
H fixed | 0.813 | 0.945 | 0.911 | 1.11 | 1.13 | 0.945 | 1.14 | 1.06 | 1.01 | 1.15
I fixed | 1.29 | 1.03 | 1.24 | 1.1 | 1 | 0.863 | 1.09 | 0.996 | 0.901 | 1.02
K fixed | 1 | 1.32 | 0.831 | 1.09 | 1 | 1.02 | 0.978 | 0.943 | 1.03 | 1.2
L fixed | 0.691 | 0.935 | 0.973 | 0.928 | 0.912 | 0.705 | 0.791 | 0.867 | 0.758 | 0.886
M fixed | 0.837 | 0.935 | 0.988 | 0.966 | 0.936 | 0.751 | 0.897 | 0.883 | 0.875 | 0.908
N fixed | 0.774 | 0.873 | 0.728 | 0.785 | 0.905 | 0.834 | 0.982 | 0.93 | 0.87 | 0.885
P fixed | 1.35 | 1.14 | 1.09 | 0.925 | 1.02 | 1.45 | 1 | 1.11 | 1.14 | 0.842
Q fixed | 0.865 | 0.821 | 0.667 | 0.787 | 0.853 | 0.828 | 0.777 | 0.867 | 0.928 | 0.855
R fixed | 1.18 | 1.25 | 0.938 | 1.12 | 1.29 | 1.18 | 1.08 | 1.23 | 1.26 | 1.31
V fixed | 1.39 | 1.07 | 0.967 | 0.998 | 0.918 | 1.01 | 1.09 | 1.04 | 0.936 | 0.928
W fixed | 0.992 | 0.962 | 1.92 | 1.16 | 1.12 | 1.02 | 0.995 | 1.02 | 1.15 | 1.26
pThr fixed | 0.868 | 0.729 | 0.691 | 0.838 | 0.635 | 1.04 | 0.974 | 0.888 | 0.912 | 0.719
pTyr fixed | 0.831 | 0.87 | 0.7 | 0.883 | 0.789 | 1.83 | 0.974 | 1.05 | 0.841 | 0.849

PTK6, construct: Full length, human (from UniProt Q13882)
relative phosphorylation
Details | at +1 | at +2 | at +3 | at +4 | at +5 | at -1 | at -2 | at -3 | at -4 | at -5
A fixed | 0.945 | 0.766 | 0.805 | 0.972 | 0.852 | 0.665 | 0.982 | 0.951 | 1.08 | 1.03
D fixed | 0.404 | 0.528 | 1.01 | 0.758 | 0.874 | 0.64 | 1.12 | 1.18 | 1.33 | 1.15
E fixed | 1.42 | 0.424 | 0.846 | 0.904 | 0.956 | 0.542 | 1.27 | 1.79 | 1.39 | 1.17
F fixed | 0.732 | 1.11 | 1.43 | 1.22 | 1.45 | 2.44 | 0.78 | 1.19 | 1.12 | 1.07
G fixed | 1.13 | 0.736 | 1.32 | 1.11 | 1.02 | 0.288 | 1.28 | 0.942 | 1.12 | 1.07
H fixed | 0.786 | 0.574 | 1.3 | 1.05 | 0.954 | 1.52 | 1.18 | 1.04 | 1.04 | 0.925
I fixed | 1.23 | 1.12 | 0.957 | 0.798 | 1.12 | 3.11 | 0.824 | 0.81 | 0.822 | 0.888
K fixed | 0.652 | 0.804 | 0.718 | 0.949 | 0.775 | 0.283 | 0.529 | 0.728 | 0.697 | 0.917
L fixed | 0.869 | 1.47 | 0.689 | 0.813 | 1.06 | 1.62 | 0.881 | 0.879 | 0.919 | 0.99
M fixed | 1.02 | 1.51 | 0.755 | 1.09 | 1.08 | 0.805 | 0.702 | 0.867 | 0.843 | 0.948
N fixed | 0.91 | 1.04 | 0.812 | 0.784 | 0.878 | 0.587 | 1.17 | 1.25 | 1.22 | 1.11
P fixed | 0.223 | 1.1 | 0.995 | 1.35 | 1.36 | 0.774 | 0.976 | 0.869 | 1.11 | 1.1
Q fixed | 1.32 | 0.607 | 0.763 | 1.01 | 0.75 | 0.43 | 0.998 | 0.811 | 0.977 | 0.995
R fixed | 1.07 | 1.12 | 0.985 | 1.17 | 0.853 | 0.261 | 0.631 | 0.86 | 0.821 | 0.997
S fixed | 1.24 | 0.902 | 0.97 | 0.871 | 0.837 | 0.418 | 1.2 | 0.962 | 0.833 | 0.863
T fixed | 1.64 | 0.587 | 0.732 | 0.72 | 0.818 | 0.83 | 0.814 | 0.84 | 0.637 | 0.778
V fixed | 1.48 | 0.616 | 0.863 | 0.884 | 0.898 | 1.43 | 0.855 | 0.705 | 0.742 | 0.632
W fixed | 0.938 | 2.98 | 2.04 | 1.55 | 1.46 | 1.35 | 1.81 | 1.33 | 1.3 | 1.38
pThr fixed | 0.711 | 0.441 | 0.759 | 0.797 | 0.891 | 0.57 | 0.79 | 0.848 | 0.878 | 1.08
pTyr fixed | 1.06 | 0.75 | 1.06 | 1.28 | 1.08 | 3.6 | 1.01 | 1.21 | 1.15 | 1.14
